± gives the uncertainty stated by the source.
Experiment: protein stability index of a GFP-peptide fusion (yeast GPS) (PSI 1-4); higher = more stable; sorted into four equal gates, so the index is relative within each strain
Procedure, shortened: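 Sequencing reads from sorted gates were used to score each peptide. The library consisted of tiled 17-residue yeast protein peptides fused downstream of GFP on a Cherry-expressing plasmid, pooled and carried in yeast. Mid-log cultures in leucine-free medium were split into four equal gates by GFP/Cherry ratio, and each gate's plasmids were PCR-amplified and Illumina-sequenced. The protein stability index adds up, over all gates, the read frequency multiplied by the gate number.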

Work on MGPLSNIAQMIPGMSNM [SRP54] yielded a protein stability index (doa10∆) of 2.49 ± 0.049, a protein stability index (pdr5∆) of 2.75 ± 0.045 and a protein stability index (san1∆) of 2.58 ± 0.048. For the same sequence, the protein stability index (ubr1∆) was 2.69 ± 0.04.

LPLLILENSSRSPRVVT [NUT1] gave a protein stability index (doa10∆) of 1.76 ± 0.054, a protein stability index (pdr5∆) of 2 ± 0.046 and a protein stability index (san1∆) of 2.258 ± 0.015. For the same sequence, the protein stability index (ubr1∆) was 1.94 ± 0.039.

Sequence ALPDAVTIIEPKEEEPI [RPS3] has a protein stability index (doa10∆) of 2.93 ± 0.059, a protein stability index (pdr5∆) of 2.99 ± 0.065 and a protein stability index (san1∆) of 3.06 ± 0.061. The protein stability index (ubr1∆) was 3.04 ± 0.058.

TDSWESFFVSVRKAITV [FAS1] gave a protein stability index (doa10∆) of 2.76 ± 0.27 and a protein stability index (pdr5∆) of 2.4 ± 0.17.

In the case of GGVGSMGAINNNIPSLT [SNF6], the protein stability index (doa10∆) is reported as 3.26 ± 0.11, the protein stability index (pdr5∆) is reported as 3.34 ± 0.09 and the protein stability index (san1∆) is reported as 3.39 ± 0.072. It also gave a protein stability index (ubr1∆) of 3.32 ± 0.1.

Sequence GEINKICMESLFLEPSW [PCI8] has a protein stability index (doa10∆) of 1.84 ± 0.12, a protein stability index (pdr5∆) of 1.89 ± 0.083 and a protein stability index (san1∆) of 2.03 ± 0.12. For the same sequence, the protein stability index (ubr1∆) was 1.99 ± 0.063.

In the case of DIKDFADKVYTKENLEV [QCR2], the protein stability index (doa10∆) is reported as 3.34 ± 0.092, the protein stability index (pdr5∆) is reported as 3.42 ± 0.11 and the protein stability index (san1∆) is reported as 2.69 ± 0.12. The protein stability index (ubr1∆) was 3.33 ± 0.053.

EAELSSTKVENSAIIQN [YIL149C/MLP2] gave a protein stability index (doa10∆) of 2.77 ± 0.11, a protein stability index (pdr5∆) of 2.87 ± 0.069 and a protein stability index (san1∆) of 2.98 ± 0.056. The protein stability index (ubr1∆) was 3.13 ± 0.062.

For PNEFMQFKSKEVEKAHP [PRP8], the protein stability index (doa10∆) was 3.16 ± 0.08, the protein stability index (pdr5∆) was 3.37 ± 0.11 and the protein stability index (san1∆) was 3.23 ± 0.052. The protein stability index (ubr1∆) was 3.25 ± 0.091.

Work on QVGLNFELSFTGAPPYY [YMR129W/POM152] yielded a protein stability index (doa10∆) of 2.35 ± 0.053, a protein stability index (pdr5∆) of 2.08 ± 0.061 and a protein stability index (san1∆) of 1.58 ± 0.061. For the same sequence, the protein stability index (ubr1∆) was 1.93 ± 0.031.

In the case of SVMDPITSKRKAELLLK [DIS3], the protein stability index (doa10∆) is reported as 2.83 ± 0.088, the protein stability index (pdr5∆) is reported as 2.76 ± 0.12 and the protein stability index (san1∆) is reported as 2.55 ± 0.12. It also gave a protein stability index (ubr1∆) of 2.85 ± 0.085.

FQKAQGSYAGHRKHIAV [YCG1] showed a protein stability index (pdr5∆) of 2.11 ± 0.28, a protein stability index (san1∆) of 2.29 ± 0.22 and a protein stability index (ubr1∆) of 2.46 ± 0.095.

Sequence NANTIETAKMIENMTKE [FAS2] has a protein stability index (doa10∆) of 2.72 ± 0.073, a protein stability index (pdr5∆) of 3.35 ± 0.078 and a protein stability index (san1∆) of 2.97 ± 0.065. For the same sequence, the protein stability index (ubr1∆) was 3.35 ± 0.095.

Sequence SISTYKDILNLASEVGD [ECM29] has a protein stability index (doa10∆) of 2.63 ± 0.07, a protein stability index (pdr5∆) of 2.65 ± 0.076 and a protein stability index (san1∆) of 2.71 ± 0.071. For the same sequence, the protein stability index (ubr1∆) was 2.77 ± 0.054.

Work on LQEKISTELNNKQYELF [SWI1] yielded a protein stability index (doa10∆) of 2.51 ± 0.077, a protein stability index (pdr5∆) of 2.74 ± 0.072 and a protein stability index (san1∆) of 2.52 ± 0.062. The protein stability index (ubr1∆) was 2.77 ± 0.059.

In the case of SPMGNAYSMGAQNQGGQ [PGD1], the protein stability index (doa10∆) is reported as 2.57 ± 0.062, the protein stability index (pdr5∆) is reported as 2.91 ± 0.069 and the protein stability index (san1∆) is reported as 2.91 ± 0.064. The protein stability index (ubr1∆) was 2.71 ± 0.043.

With LKLPLEINYAFSMDEEF [SIR3] the protein stability index (doa10∆) was 2.13 ± 0.07, the protein stability index (pdr5∆) was 2.18 ± 0.058 and the protein stability index (san1∆) was 2.73 ± 0.056. It also gave a protein stability index (ubr1∆) of 2.2 ± 0.048.

In the case of KKEKLKQENSTLLKKAN [RPC82], the protein stability index (doa10∆) is reported as 2.3 ± 0.074, the protein stability index (pdr5∆) is reported as 2.81 ± 0.093 and the protein stability index (san1∆) is reported as 2.71 ± 0.12. For the same sequence, the protein stability index (ubr1∆) was 2.85 ± 0.075.

For RDMIMKRNSDKVEYKIV [ITC1], the protein stability index (doa10∆) was 1.78 ± 0.078, the protein stability index (pdr5∆) was 1.83 ± 0.078 and the protein stability index (san1∆) was 1.85 ± 0.12. The protein stability index (ubr1∆) was 1.31 ± 0.047.

GGNGPEDFQQHEQIRRK [RPO26] showed a protein stability index (doa10∆) of 3.3 ± 0.1, a protein stability index (pdr5∆) of 3.39 ± 0.072 and a protein stability index (san1∆) of 3.09 ± 0.089. The protein stability index (ubr1∆) was 3.44 ± 0.083.

In the case of NTNNNNSTGHSSNTNNN [SWI1], the protein stability index (doa10∆) is reported as 2.63 ± 0.049, the protein stability index (pdr5∆) is reported as 2.29 ± 0.05 and the protein stability index (san1∆) is reported as 2.41 ± 0.058. It also gave a protein stability index (ubr1∆) of 1.93 ± 0.05.

With PSEILHLILDKLNQKYD [GRR1] the protein stability index (doa10∆) was 3.14 ± 0.096, the protein stability index (pdr5∆) was 2.48 ± 0.068 and the protein stability index (san1∆) was 2.54 ± 0.19. The protein stability index (ubr1∆) was 2.46 ± 0.061.

Work on LKIHQSHLVVPYCPIAS [YMR129W/POM152] yielded a protein stability index (doa10∆) of 1.25 ± 0.063, a protein stability index (pdr5∆) of 1.29 ± 0.061 and a protein stability index (san1∆) of 1.24 ± 0.12. For the same sequence, the protein stability index (ubr1∆) was 1.28 ± 0.035.

TLGNALRYVIMKNPDVE [RPC19] gave a protein stability index (doa10∆) of 2.93 ± 0.091, a protein stability index (pdr5∆) of 2.73 ± 0.059 and a protein stability index (san1∆) of 2.46 ± 0.077. The protein stability index (ubr1∆) was 2.8 ± 0.055.

DDMVEYEDGTPATTSQM [CYT1] gave a protein stability index (pdr5∆) of 2.76 ± 0.14 and a protein stability index (san1∆) of 3.02 ± 0.19.

Work on IAAGTYGKVYKAKRQIN [SSN3] yielded a protein stability index (doa10∆) of 1.68 ± 0.061, a protein stability index (pdr5∆) of 2.03 ± 0.043 and a protein stability index (san1∆) of 2.24 ± 0.068. The protein stability index (ubr1∆) was 2.29 ± 0.048.

Work on KKCHRLLWTPKKLEITS [RPR2] yielded a protein stability index (doa10∆) of 2.35 ± 0.045, a protein stability index (pdr5∆) of 2.48 ± 0.044 and a protein stability index (san1∆) of 2.59 ± 0.038. The protein stability index (ubr1∆) was 2.34 ± 0.031.
